# Measured values reported in patent publication US8785135B2, “Mutant G-protein coupled receptors and methods for selecting them” (Heptares Therapeutics Limited, priority 2007, dated 2014).
# Assay: Thermostability of NTR and mutants (3H-neurotensin binding)
# Assay type: physicochemical
# Settings: Ligand(+) format
# Experimental: FIG. 12 Flow chart showing the two different assay formats of ligand (+) and ligand (−) used to determine receptor thermostability.
# • 1. 340 site-directed mutants have been made between residues 61-400 of NTR. • 2. Initially, all of these mutants were assayed for thermostability using an assay measuring ^3H-neurotensin (agonist) binding after the heating step. […] Mutants tested for thermostability by heating in the absence of the agonist were re-tested using a slightly different assay where the mutants were heated in the presence of ^3H-neurotensin (Ligand(+) format in FIG. 12). […] All of these also have increased thermostability. • 5. Preferred combinations are • a. Nag7m F358A+A86L+I260A+F342A Tm 51° C. (neurotensin bound) • b. Nag7n F358A+H103A+I260A+F342A Tm 51° C. (neurotensin bound) • Wildtype NTR has a Tm of 35° C. with neurotensin bound.
row,Molecule,"thermostability, heated in the presence of 3H-neurotensin"
1,"L308A: NTR point mutant (protein, UniProt P20789 1-424, looked up, variant L308A) Neurotensin receptor type 1: MHLNSSVPQGTPGEPDAQPFSGPQSEMEATFLALSLSNGSGNTSESDTAGPNSDLDVNTDIYSKVLVTAIYLALFVVGTVGNSVTAFTLARKKSLQSLQSTVHYHLGSLALSDLLILLLAMPVELYNFIWVHHPWAFGDAGCRGYYFLRDACTYATALNVASLSVERYLAICHPFKAKTLMSRSRTKKFISAIWLASALLAIPMLFTMGLQNRSGDGTHPGGLVCTPIVDTATVKVVIQVNTFMSFLFPMLVISILNTVIANKLTVMVHQAAEQGRVCTVGTHNGLEHSTFNMTIEPGRVQALRHGVAVLRAVVIAFVVCWLPYHVRRLMFCYISDEQWTTFLFDFYHYFYMLTNALFYVSSAINPILYNLVSANFRQVFLSTLACLCPGWRHRRKKRPTFSRKPNSMSSNHAFSTSATRETLY",improved thermostability
2,"V313A: NTR point mutant (protein, UniProt P20789 1-424, looked up, variant V313A) Neurotensin receptor type 1: MHLNSSVPQGTPGEPDAQPFSGPQSEMEATFLALSLSNGSGNTSESDTAGPNSDLDVNTDIYSKVLVTAIYLALFVVGTVGNSVTAFTLARKKSLQSLQSTVHYHLGSLALSDLLILLLAMPVELYNFIWVHHPWAFGDAGCRGYYFLRDACTYATALNVASLSVERYLAICHPFKAKTLMSRSRTKKFISAIWLASALLAIPMLFTMGLQNRSGDGTHPGGLVCTPIVDTATVKVVIQVNTFMSFLFPMLVISILNTVIANKLTVMVHQAAEQGRVCTVGTHNGLEHSTFNMTIEPGRVQALRHGVLVLRAAVIAFVVCWLPYHVRRLMFCYISDEQWTTFLFDFYHYFYMLTNALFYVSSAINPILYNLVSANFRQVFLSTLACLCPGWRHRRKKRPTFSRKPNSMSSNHAFSTSATRETLY",improved thermostability
3,"P389A: NTR point mutant (protein, UniProt P20789 1-424, looked up, variant P389A) Neurotensin receptor type 1: MHLNSSVPQGTPGEPDAQPFSGPQSEMEATFLALSLSNGSGNTSESDTAGPNSDLDVNTDIYSKVLVTAIYLALFVVGTVGNSVTAFTLARKKSLQSLQSTVHYHLGSLALSDLLILLLAMPVELYNFIWVHHPWAFGDAGCRGYYFLRDACTYATALNVASLSVERYLAICHPFKAKTLMSRSRTKKFISAIWLASALLAIPMLFTMGLQNRSGDGTHPGGLVCTPIVDTATVKVVIQVNTFMSFLFPMLVISILNTVIANKLTVMVHQAAEQGRVCTVGTHNGLEHSTFNMTIEPGRVQALRHGVLVLRAVVIAFVVCWLPYHVRRLMFCYISDEQWTTFLFDFYHYFYMLTNALFYVSSAINPILYNLVSANFRQVFLSTLACLCAGWRHRRKKRPTFSRKPNSMSSNHAFSTSATRETLY",improved thermostability
4,"V309A: NTR point mutant (protein, UniProt P20789 1-424, looked up, variant V309A) Neurotensin receptor type 1: MHLNSSVPQGTPGEPDAQPFSGPQSEMEATFLALSLSNGSGNTSESDTAGPNSDLDVNTDIYSKVLVTAIYLALFVVGTVGNSVTAFTLARKKSLQSLQSTVHYHLGSLALSDLLILLLAMPVELYNFIWVHHPWAFGDAGCRGYYFLRDACTYATALNVASLSVERYLAICHPFKAKTLMSRSRTKKFISAIWLASALLAIPMLFTMGLQNRSGDGTHPGGLVCTPIVDTATVKVVIQVNTFMSFLFPMLVISILNTVIANKLTVMVHQAAEQGRVCTVGTHNGLEHSTFNMTIEPGRVQALRHGVLALRAVVIAFVVCWLPYHVRRLMFCYISDEQWTTFLFDFYHYFYMLTNALFYVSSAINPILYNLVSANFRQVFLSTLACLCPGWRHRRKKRPTFSRKPNSMSSNHAFSTSATRETLY",improved thermostability
5,"S373A: NTR point mutant (protein, UniProt P20789 1-424, looked up, variant S373A) Neurotensin receptor type 1: MHLNSSVPQGTPGEPDAQPFSGPQSEMEATFLALSLSNGSGNTSESDTAGPNSDLDVNTDIYSKVLVTAIYLALFVVGTVGNSVTAFTLARKKSLQSLQSTVHYHLGSLALSDLLILLLAMPVELYNFIWVHHPWAFGDAGCRGYYFLRDACTYATALNVASLSVERYLAICHPFKAKTLMSRSRTKKFISAIWLASALLAIPMLFTMGLQNRSGDGTHPGGLVCTPIVDTATVKVVIQVNTFMSFLFPMLVISILNTVIANKLTVMVHQAAEQGRVCTVGTHNGLEHSTFNMTIEPGRVQALRHGVLVLRAVVIAFVVCWLPYHVRRLMFCYISDEQWTTFLFDFYHYFYMLTNALFYVSSAINPILYNLVAANFRQVFLSTLACLCPGWRHRRKKRPTFSRKPNSMSSNHAFSTSATRETLY",improved thermostability
6,"V360A: NTR point mutant (protein, UniProt P20789 1-424, looked up, variant V360A) Neurotensin receptor type 1: MHLNSSVPQGTPGEPDAQPFSGPQSEMEATFLALSLSNGSGNTSESDTAGPNSDLDVNTDIYSKVLVTAIYLALFVVGTVGNSVTAFTLARKKSLQSLQSTVHYHLGSLALSDLLILLLAMPVELYNFIWVHHPWAFGDAGCRGYYFLRDACTYATALNVASLSVERYLAICHPFKAKTLMSRSRTKKFISAIWLASALLAIPMLFTMGLQNRSGDGTHPGGLVCTPIVDTATVKVVIQVNTFMSFLFPMLVISILNTVIANKLTVMVHQAAEQGRVCTVGTHNGLEHSTFNMTIEPGRVQALRHGVLVLRAVVIAFVVCWLPYHVRRLMFCYISDEQWTTFLFDFYHYFYMLTNALFYASSAINPILYNLVSANFRQVFLSTLACLCPGWRHRRKKRPTFSRKPNSMSSNHAFSTSATRETLY",improved thermostability
7,"F342A: NTR point mutant (protein, UniProt P20789 1-424, looked up, variant F342A) Neurotensin receptor type 1: MHLNSSVPQGTPGEPDAQPFSGPQSEMEATFLALSLSNGSGNTSESDTAGPNSDLDVNTDIYSKVLVTAIYLALFVVGTVGNSVTAFTLARKKSLQSLQSTVHYHLGSLALSDLLILLLAMPVELYNFIWVHHPWAFGDAGCRGYYFLRDACTYATALNVASLSVERYLAICHPFKAKTLMSRSRTKKFISAIWLASALLAIPMLFTMGLQNRSGDGTHPGGLVCTPIVDTATVKVVIQVNTFMSFLFPMLVISILNTVIANKLTVMVHQAAEQGRVCTVGTHNGLEHSTFNMTIEPGRVQALRHGVLVLRAVVIAFVVCWLPYHVRRLMFCYISDEQWTTALFDFYHYFYMLTNALFYVSSAINPILYNLVSANFRQVFLSTLACLCPGWRHRRKKRPTFSRKPNSMSSNHAFSTSATRETLY",improved thermostability
8,"F380A: NTR point mutant (protein, UniProt P20789 1-424, looked up, variant F380A) Neurotensin receptor type 1: MHLNSSVPQGTPGEPDAQPFSGPQSEMEATFLALSLSNGSGNTSESDTAGPNSDLDVNTDIYSKVLVTAIYLALFVVGTVGNSVTAFTLARKKSLQSLQSTVHYHLGSLALSDLLILLLAMPVELYNFIWVHHPWAFGDAGCRGYYFLRDACTYATALNVASLSVERYLAICHPFKAKTLMSRSRTKKFISAIWLASALLAIPMLFTMGLQNRSGDGTHPGGLVCTPIVDTATVKVVIQVNTFMSFLFPMLVISILNTVIANKLTVMVHQAAEQGRVCTVGTHNGLEHSTFNMTIEPGRVQALRHGVLVLRAVVIAFVVCWLPYHVRRLMFCYISDEQWTTFLFDFYHYFYMLTNALFYVSSAINPILYNLVSANFRQVALSTLACLCPGWRHRRKKRPTFSRKPNSMSSNHAFSTSATRETLY",improved thermostability
9,"H103A: NTR point mutant (protein, UniProt P20789 1-424, looked up, variant H103A) Neurotensin receptor type 1: MHLNSSVPQGTPGEPDAQPFSGPQSEMEATFLALSLSNGSGNTSESDTAGPNSDLDVNTDIYSKVLVTAIYLALFVVGTVGNSVTAFTLARKKSLQSLQSTVAYHLGSLALSDLLILLLAMPVELYNFIWVHHPWAFGDAGCRGYYFLRDACTYATALNVASLSVERYLAICHPFKAKTLMSRSRTKKFISAIWLASALLAIPMLFTMGLQNRSGDGTHPGGLVCTPIVDTATVKVVIQVNTFMSFLFPMLVISILNTVIANKLTVMVHQAAEQGRVCTVGTHNGLEHSTFNMTIEPGRVQALRHGVLVLRAVVIAFVVCWLPYHVRRLMFCYISDEQWTTFLFDFYHYFYMLTNALFYVSSAINPILYNLVSANFRQVFLSTLACLCPGWRHRRKKRPTFSRKPNSMSSNHAFSTSATRETLY",improved thermostability
10,"L310A: NTR point mutant (protein, UniProt P20789 1-424, looked up, variant L310A) Neurotensin receptor type 1: MHLNSSVPQGTPGEPDAQPFSGPQSEMEATFLALSLSNGSGNTSESDTAGPNSDLDVNTDIYSKVLVTAIYLALFVVGTVGNSVTAFTLARKKSLQSLQSTVHYHLGSLALSDLLILLLAMPVELYNFIWVHHPWAFGDAGCRGYYFLRDACTYATALNVASLSVERYLAICHPFKAKTLMSRSRTKKFISAIWLASALLAIPMLFTMGLQNRSGDGTHPGGLVCTPIVDTATVKVVIQVNTFMSFLFPMLVISILNTVIANKLTVMVHQAAEQGRVCTVGTHNGLEHSTFNMTIEPGRVQALRHGVLVARAVVIAFVVCWLPYHVRRLMFCYISDEQWTTFLFDFYHYFYMLTNALFYVSSAINPILYNLVSANFRQVFLSTLACLCPGWRHRRKKRPTFSRKPNSMSSNHAFSTSATRETLY",improved thermostability
11,"N370A: NTR point mutant (protein, UniProt P20789 1-424, looked up, variant N370A) Neurotensin receptor type 1: MHLNSSVPQGTPGEPDAQPFSGPQSEMEATFLALSLSNGSGNTSESDTAGPNSDLDVNTDIYSKVLVTAIYLALFVVGTVGNSVTAFTLARKKSLQSLQSTVHYHLGSLALSDLLILLLAMPVELYNFIWVHHPWAFGDAGCRGYYFLRDACTYATALNVASLSVERYLAICHPFKAKTLMSRSRTKKFISAIWLASALLAIPMLFTMGLQNRSGDGTHPGGLVCTPIVDTATVKVVIQVNTFMSFLFPMLVISILNTVIANKLTVMVHQAAEQGRVCTVGTHNGLEHSTFNMTIEPGRVQALRHGVLVLRAVVIAFVVCWLPYHVRRLMFCYISDEQWTTFLFDFYHYFYMLTNALFYVSSAINPILYALVSANFRQVFLSTLACLCPGWRHRRKKRPTFSRKPNSMSSNHAFSTSATRETLY",improved thermostability

# Same assay, conditions: heated in the absence of the agonist
row,Molecule,"thermostability, 3H-neurotensin (agonist) binding after the heating step"
1,"H103A: NTR point mutant (protein, UniProt P20789 1-424, looked up, variant H103A) Neurotensin receptor type 1: MHLNSSVPQGTPGEPDAQPFSGPQSEMEATFLALSLSNGSGNTSESDTAGPNSDLDVNTDIYSKVLVTAIYLALFVVGTVGNSVTAFTLARKKSLQSLQSTVAYHLGSLALSDLLILLLAMPVELYNFIWVHHPWAFGDAGCRGYYFLRDACTYATALNVASLSVERYLAICHPFKAKTLMSRSRTKKFISAIWLASALLAIPMLFTMGLQNRSGDGTHPGGLVCTPIVDTATVKVVIQVNTFMSFLFPMLVISILNTVIANKLTVMVHQAAEQGRVCTVGTHNGLEHSTFNMTIEPGRVQALRHGVLVLRAVVIAFVVCWLPYHVRRLMFCYISDEQWTTFLFDFYHYFYMLTNALFYVSSAINPILYNLVSANFRQVFLSTLACLCPGWRHRRKKRPTFSRKPNSMSSNHAFSTSATRETLY",small but significant increase in thermostability
